Measured values published in paper PMC3798461.

Experiments:
[1] = molecular target: mLANA_(140–272), C-terminal DNA-binding domain of murine gammaherpesvirus 68 latency-associated nuclear antigen (murine gammaherpesvirus 68 (MHV-68)); assay: SEC; purified mLANA DBD truncations analysed by size exclusion chromatography; oligomeric state from the elution volume
[2] = molecular target: mLANA_(140–314) (murine gammaherpesvirus 68 (MHV-68)); assay: as above
[3] = tested on: mLANA124-272 WT (Murine gammaherpesvirus 68 (MHV-68, MuHV-4)); assay: SPR; settings: 5' biotin with TTTTT spacer; EMSA: 20 mM Tris-HCl pH 7.5, 50 mM KCl, 10 mM MgCl2, 1 mM EDTA, 20 ug/mL poly(dI-dC), 0.1 mM DTT, 10% glycerol, RT; ITC: 25 mM Na/K phosphate pH 7.0, 150 mM …
[4] = tested on: mLANA124-314 WT (Murine gammaherpesvirus 68 (MHV-68, MuHV-4)); assay: ITC; settings: EMSA: 20 mM Tris-HCl pH 7.5, 50 mM KCl, 10 mM MgCl2, 1 mM EDTA, 20 ug/mL poly(dI-dC), 0.1 mM DTT, 10% glycerol, RT; ITC: 25 mM Na/K phosphate pH 7.0, 150 mM …

mLANA_(140–272), C-terminal DNA-binding domain of murine gammaherpesvirus 68 latency-associated nuclear antigen (domain or fragment)
stoichiometry N [1]: 2

mLANA_(140–314) (domain or fragment)
stoichiometry N [2]: 4

mLBS1 SPR ligand (biotin-TTTTT-mLBS1)
Kd [3]: 0.169 µM

mLBS1 for ITC and SEC (no spacer)
Kd [4]: 0.066 µM
